Test results taken from a protein production outcome set (Wang et al. 2014).

Assay: label from the status in PepcDB records

Sequence: MKITMRVSVPLSPRQAASQPVPSHRCLHVWPFIRPSLLRPELTMPSGCRCLNLVCLLCILGATSQPARADDCSSHCDLAHGCCAPDGSCRCDPGWEGLHCERCVRMPGCQHGTCHQPWQCICHSGWAGKFCDKDEHICTSQSPCQNGGQCVYDGGGEYHCVCLPGFHGRGCERKAGPCEQAGFPCRNGGQCQDNQGFALNFTCRCLAGFMGAHCEVNVDDCLMRPCANGATCIDGINRFSCLCPEGFAGRFCTINLDDCASRPCQRGARCRDRVHDFDCLCPSGYGGKTCELVLPAPEPASVGTPQMPTSAVVVPATGPAPHSAGAGLLRISVKEVVRRQESGLGESSLVALVVFGSLTAALVLATVLLTLRAWRRGICPTGPCCYPAPHYAPARQDQECQVSMLPAGFPLSPDLPPEPGKTTAL
- protein production: failed

Sequence: MKKAIYLLILCIFGLFSVYFTYAENISDISNTTSKNISSSNISHNNIIYSNINYNEILYIIVKNNTAYVKDVINGTNNPYHIKSAGIILYEKIYGYNYSNLLYRNSSNSLIFYYNFSVDKINYTINITIPQIEDYVGSLGGPIRMRIPPNNVKIIIVAENKLAETNGKYILEYNKTDKKVISLIYLDNVSSICNIYYTKFFNSSEFYGYAVANVTSITENRTSYTIKNPKGTFTFDRKYNVFVSNKTAYLKEPYLYVKLYNSTIDDIIILENNKISENSTKFMSNYLLSFIGIIIGFGIIGLAIYLSKRGRK
- protein production: failed

Sequence: MKKAKLIFKDNTPFSLDFDDFYFNFKDGLNESKFVYTHSFEWKNQENFIIAESGFGIGLNFFLTLKRFLETTPSKRPKKLFYISVEAFYIEKEQLREIYQKLEFYEEFKELLEQFLKFYPKAKEGIYRFYFEDCFLDLVFEDIAVLKELDFKADVWYLDGFSPNKNSQMFDENLIFEVARLSKKNTQICTFSSASFLQKNLKKYGFRVEKTKGFRKREMIKAYLENELEFKDKEAYFSRTFSSLKNKKVAIIGAGISSAVLAYELSLRGFEIDIFEKHLELGKGASGNESGILSSLILKPKVNLGEFSELSFIEASRFYRQILDLEFKGVVEFAHNDLMQERFDTQRENVLFKISKNQAFLEEGGVIFPKKLVKNLFEKSKACIYFNHEFQAYKFENGCFSLKFKNDVVKSDYAVLIYAMGADAKDFVFYDEMKLSKVRGQVTHLKPFLDTPFPLSSKAYICPVKDDLQVIGASYDRLNASLESKEEDDKQNIENIADFMDKNTKLEIIGSKVGFRSYSSDRFMIVGNAYDEAFYKEEYKALLWTKNKEQKPAKMSCNLYFNFAHGSRGFSTSVLAARYLCALINNEPLCLEKKYIHAIHPARFLIRKLKKGL
- protein production: failed

Sequence: MKKATMLTYLEEQLEKHLGDYEVGLDWDRKNHTIEVIVRLYAENNEQVAIDDVDGTLSEEEFIEFEDGLLFYNPQKSVVDDEEYLVTIPYEGKKGLRKAVLDGFIHYLKVVLDEGQSDLLDFLSDETAEVFELHWEPADFEAMIKKVAETEKEQWIAYPSY
- protein production: not failed

Sequence: MKKAVFSTLVIGLLSFQAHADYVAQPQSIAAQAARYSVMSIPELTQAAKSGQAGAQFYLGAHYQHGKNIPKDDKQAFTWFKAAADQGLSPAQLNVGRMYADGVGVAKNEAMARKYFEKAASNGDNRASYNLAMMEEQKKNYQGAYQWYELSTRDGMLDNKVINMSQSKKTALAANLTQDQIRQAVDRADKWIQAQ
- protein production: failed

Sequence: MKKDFASVTPAGKKTSVRWFIVFMLFLVTSINYADRATLSITGDSVQHDLGLDSVAMGYVFSAFGWAYVIGQLPGGWLLDRFGSKTIIALSIFFWSFFTLLQGAIGFFSAGTAIILLFALRFLVGLSEAPSFPGNGRVVASWFPSSERGTASAFFNSAQYFAIVIFPPLMGWLTHSFGWHSVFVVMGIAGILLAVIWLKTVYEPKKHPKVNEAELAYIEQGGGLISMDDSKSKQETESKWPYIKQLLTNRMLIGVYIAQYCITTLTYFFLTWFPVYLVQARGMSILEAGFVASLPALCGFAGGVLGGIVSDILLKKGRSLTFARKVPIIAGMLLSCSMIVCNYTDSAWLVVVIMSLAFFGKGFGALGWAVVSDTSPKECAGLSGGLFNTFGNIASITTPIIIGYIVNATGSFNGALVFVGANAIAAILSYLLLVGPIKRVVLKKQEQDPDQSLPV
- protein production: failed

Sequence: MKKEKLFSLLRYIDNGSLECITSLFLITLSLTMPAIGLGNFGIQVIALSMIPLINVRFPVAALPLALVATVWLNAWADHLLLTGFIVYLAVEYATSRGRFALALILGVEWILIAYGVALERPLEAKDSPSLITEILLILVAAGTGAGRWKILSERKQRAITQQEIIKKIRTDIAHYLHDSMARSLAIMIVQSKLTELEPDPKKIQEKLNSIAKIGQEAVADLHQLVRHLVVEESAEKATAFGAWAAVSIHDTVNSAIQLLVDAGHVVSFDSRKKNYKLDHIAETAFALAFNEAVCNAIKHSPPKANVTIRITEKAQSLQILVMNPIGDWHANGESAIPGVGIGVESLTRRIRNIKGQVCVTSLQGYWKVVISLPLKCEDS
- protein production: failed

Sequence: MKKFKLSSFLPLSYILLLVLVSPLYDVLNKSTVHAVDVTTVVDDWIPFVKAFIIPYLLWFPYLYGALIYYCFADRKQYYVTLSSVIFGKLACFSIYYFWQTTVPRPTVVGTDVFSELVRYIYSIDQPVNCFPSIHVLTTFVIMLAAFKRREQHAFEYYILTFFGTLIILSTLFTKQHAFLDAVSGMTLASILYFGVQLLLAKEPIKVPVKQNHKM
- protein production: failed

Sequence: MKKFVCTVCGYIHEGDAAPAQCPVCKVGADKFEEMKGEMVWADEHRIGVAQGVDAEIIEGLRANFTGECTEVGMYLAMSRQADREGYPEVAEAYKRIAFEEAEHAAKFAELLGEVVVADTKENLRVRVDAEYGATDGKLKLAKRAKELGLDAIHDTVHEMCKDEARHGKAFLGLLNRHFGKLEHHHHHH
- protein production: not failed

Sequence: MKKGIQPLKWKDVPALAVLGFFSVTLHHLLINTGQQYVTAVASSILSQSIPLFTFIISALLFKEQISFKQWLCILLGLCGAVLVVSGDHGFGMPSPYSLLIVLAAIAWGLYFNLYKKFALNYDALSMMCYIIWFGTLPLLFYSAHLPSEILHATWQANMSVVLLGIFPSAMAYVLWGYVLKNMPLTIASNFLYCSPIVAMSLAVLFLNEKPSIIVLLGGVIIVGSLVWMNWGRKK
- protein production: failed

Sequence: MKKILILFFLLFTVNAFTQNYADYMSSGLDAYARSDWSSALFSFQKAMEVSKNSLDEPLYWLIMANASARNYTVALNDIETFLKRFPNSSKAAEVIYQQGRICCLSAKHDQSINILYGFLRKYPNHRQTASAYYWIGENLYMVGRLKDARTIFSRVIIDYPSSAKVEPSRYKIALIDQASTQDELLKLLKISHEELLKLSEESEKNKKIYEQTIAAYQRQSSDAGGDMRIAELSEQLKMERKHNEELHDQLVMLELKNQELLATLAKMDAKYTSEMAADGETPAADYSDPKAKRAAIEALIKKAKILQSMYNQLLEGNGQ
- protein production: failed

Sequence: MKKILVLGGAHIDRRGMIETETAPGASNPGSWMEEAGGGGFNAARNLSRLGFEVRIIAPRGGDVTGEVVAEAARQAGVEDTPFTFLDRRTPSYTAILERDGNLVIALADMDLYKLFTPRRLKVRAVREAIIASDFLLCDANLPEDTLTALGLIARACEKPLAAIAISPAKAVKLKAALGDIDILFMNEAEARALTGETAENVRDWPNILRKAGLSGGVVTRGASEVVAFNGTEKAILHPPLIREVKDVTGAGDAMASGYLAAIAEGKTIREALRQGAAAAAITVQSSFATSQDLSKDSVEAMLGLVPQAEMLA
- protein production: not failed

Sequence: MKKITKMVISSVLATVLMTACSQSSQNGQSDVKHIGILQYVEHPSLTATRKGFIKELAKEGYKDGKNIKIEYKNAQGDQSNIQSISEKLIKDNKLVLGIATPAAQSLTTVSTETPILFTAVTDPVSAELVKSMKKPEGLATGTSDMSPIKKQVSLLRKVMPKVKRVGIMYTTSERNSEVQVKQAKKIFQEAGIKTSVKGISSTNDVQDTAKSLMSKTEVIFVPTDNIIASSVTLLGNLSKELKVPVVGGSADMVPSGLLFSYGADYEALGRQTARQAVKILKGKDVAKVPSEYPQNLKVVVNEDMAKELGIDVSSIKNNK
- protein production: failed

Sequence: MKKIYIILLILFVILISLIGASILLVMSLSGENVDLFGGEKIAKVYLCNEIYFDYNQGDGIFPQQKKDARYYINLLDDLEKDDSVKGVLLVVNSPGGEVIASEKLARKVEELAKKKPVVVYVEGLDASGAYMVSAPADYIVAEKHSIVGSIGVRMDLMHYYGLMKKLGINVTTIKAGKYKDIGSPFRPMTKEEKEYLQKMINETYMDFVKWVAEHRHLSINYTLKIADGKIYSGEDAKKVGLVDEVGTEEDALKKLEQLANVSNPEIVEYGLEENKGLFGLTYYLGYGIGKGIGEVLYGMEKINGRVELLSLEHHHHHH
- protein production: failed

Sequence: MKKKKVIASIVAVCFSLALLSTWVMIFGCMKRGEQELHANTSVEIPDMSSIPGCVQNGGQLMYRGNIYKYDPANINILFMGIDARGEDESIGQADMLALVVINTEKDTVKCICINRDSIGPVAIYDISGKAATTKNVQIALAYSYGKSQSEGRGLEMNTVSKLLHGIPIHGSVSVDIDGIGGINELAGGITLTALEDVPKAGIVKGEEVTLNDEQAMYYVTERDSASTDIGTNENRMSRQKQYISAWCDAVQQQIKKNPFKIFKMYDSVQGYVDTDISRNSMLYLAKVLKRVQFGEGDIYTVSGDYERENYYDKYLIDEDKLTEMMIETFYRKTE
- protein production: failed

Sequence: MKKKLLNYLILLACLATVSVSCSGSAQAAVLGDDYPFSWKYGGFGVDPWTMYWRQCTSFAAYRLSNTNGFTLPIGYGNAITWGNIARANGHRVDMNPAVGSIAWFSAGVNGAGHMGHVAWVAEVHGDQVTIEEYNYDAGQGPEKYHKRSFHKSQVSGYIHFKDLESGTQNGNPTNSSIKVGDSVRFTGTFRVTSVSGNTITSQDLAGGTPTKHNIVDPSPVLEVDAQGNPTSDQYLNPGETFTIPGNFKVLAIDPPSDGILVQIGNLKTWVTQSVLEKILEHHHHHH
- protein production: not failed

Sequence: MKKKSLIILSIIVLIFVCITLYLTREHIMVFYKLITNGEVVKSYLERFGPWAAVIFFVFQILQVVIFFIPGEVIQAAGGYIFGALGGTLLSFFGIAVGSAILFYICQKFGKKLVQRFVPKDMYDKLEKILNSPKFKLILVILFFLPGAPKDSLIMVCALSNITIGHFIIFSMIGRIPALVASSFMGANLAEGNIVGVIIIGVIALIACALGVIFRKDVFKYMEKL
- protein production: failed

Sequence: MKKLFFIFLGSCTFALGTLGIFLPLLPTTGFYLLTAFFWMRSSDKLYNKFLASSYYQKYIQEAFFEKKITRKGKWKLFISMFLLFAIPCLIVRNTLMTTTLAIVYLAHVIGLSWYWRPKKKALELDQE
- protein production: failed

Sequence: MKKLFPLLLLILSILVGCGKKEKHSVTEIAREKKRITALLYEKELPTDSVKQLYENSVQNKNLVGQMLFAIEVGKRMRNMSQYTDAMLYHQKGLNAALNLRDTIVAAQAWNHLGTDSRRIGALAEASDYHYKALSLIESFSGNQNRPAIKARSAALNGIGNINLELGYHDEAEKNFLKALQGEKELDSPLGQAINYANLGRIYRQRKEYDKARTYFLLSLEQNNMAENLMGIGLCSINLGEVDEEKGDYQKALQEYATAYKLMEQLSDRWHWLNSCIPMARINLKQGNERLYQHFISLAEGTAKEINSTSHLIEIYNLQYENLERKKEYKQALEAFCLSKTLSDSMSIAHKVSSIQETRFNYERNKSQKELEEIQQVSKAKQEKSKFILLSTLFALFISILLISVLTYAYRQGKKHNKLIKETDKLRSGFFTGITHEFRTPITVIQGLNEKMSSSPDLQASDRTELHKIIDRQSSHMLNLVNQLLDICKIRSGVSTPEWRNGDIVSFVQILIDSFAPYAQAQDITLELQPESKPIVVDFVPSYLQKIISNLLSNAIKYSLAGGRVVISLAKTKNEKNLIIRVADNGIGIDKTDQAHIFDIFYRGQSATEKHGSGVGLSFTNILVENLRGTIKVESQPGKGSAFTISIPTQNQSSSAEILPWLPSSDDIVMPVHIAPDDSPTSPMVAALNHRFEDERPTILLVEDNKDINLLVKLLLCDRYNVLSAANGKEGIALATEHIPDIIITDIMMPIMDGIEMTIRMKQSPLLCHIPIVALTAKSTEQDRLEGIKSGVVSYLCKPFSPEELLMRIEQLLKDRELLKKFYMQKLMLDRKPEEEPQPIDDSSMQFLLAAKDAVSGGIKQNPDFSAQDLAEKMCMSPSQLNRKLTSVVGCSTIGYIQQIKIKLACKLLADESKNISDISIEAGFSDPAYFSRTFKRYMNCSPSQYRQKLLAMPGSDKETV
- protein production: failed
